The record followed here is patent publication KR20220139244A (dated 2022).

A word on the IC50: it is the point on the concentration scale where inhibition reaches its midpoint. A low value points to greater potency. In general, Kd refers to the concentration at which binding is half-saturated. One may read the koff as a measure of how fast the partners let go of each other. A word on the kon: it is the rate constant with which the complex forms.

For assay [1], the target named is T1, SARS-CoV-2 spike 501Y.V2 (pseudovirus of Tables 8/23) (SARS-CoV-2). The experiment in a line: cell-based or functional assay.
Assay [2] deals with T1, SARS-CoV-2 spike 501Y.V2 (pseudovirus …). The experiment in a line: cell-based or functional assay. The source holds these as a separate data set.
The target in assay [3] is SARS-CoV-2 spike 'D614 or G614' (pseudovirus of Table 23) (SARS-CoV-2, UniProt P0DTC2 14-1273). The experiment in a line: cell-based or functional assay.
Assay [4] concerns the target T2, SARS-CoV-2 RBD protein, wild type (recombinant) (SARS-CoV-2, UniProt P0DTC2 319-541). The experiment in a line: BLI. In general terms: Biolayer interferometry detects binding as a change in optical thickness at a sensor tip.
Assay [5] concerns the target T2, SARS-CoV-2 RBD protein, wild type …. The experiment in a line: BLI (Octet), IgG culture supernatant.

Where two headings read alike, the source gives them in different places.

B1: No. 139 antibody (Full IgG) (antibody, V domains shown)
VH: QITLKESGPTLVKPTQTLTLTCSFSGFSLSTSGVGVGWIRQPPGKALEWLALIDWDDNKYHTTSLKTRLTISKDTSKNQVVLTMTNMDPVDTATYYCARIPGFLRYRNRYYYYGMDVWGQGTTVTVSS
VL: ELVLTQPPSVSAAPGQKVTISCSGSSSNIGNNYVSWYQQLPGTAPKLLIYDNNKRPSGIPDRFSGSKSGTSATLGITGLQTGDEADYYCGTWDSSLSAGVFGGGTELTVL
B1: the IC50 in assay [1] was determined as 0.33 µg/mL; in assay [2], 0.33 µg/mL; in assay [3], 0.00035 µg/mL.

B2: No. 32 antibody (Full IgG; Table 3/4 numbering) (antibody, V domains shown)
VH: EVQLVQSGGGLIQPGGSLRLSCAASEFIVSSNYMTWVRQAPGKGLEWVSIIYPGGSTYYADSVKGRFTISRDNSKNTLYLRMNSLRAEDTAVYYCARDLPLTGTTLDYWGQGTLVTVSS
VL: not shown
For the molecule B2, in assay [4], the Kd came out at 0.132 nM, the koff came to 0.000103 s⁻¹ and the kon is 779000 M⁻¹ s⁻¹. The molecule further returned an IC50 in assay [2] of 0.06 µg/mL. The same molecule registered an IC50 in assay [3] of 0.00325 µg/mL. For the same molecule, in assay [5], the Kd turned out to be 0.147 nM.
